We go through one protein from paper PMC5708649, “A novel Porphyromonas gingivalis enzyme: An atypical dipeptidyl peptidase III with an ARM repeat domain” (PLoS ONE, 2017).

Substrate in series [1]: Cc1cc(=O)oc2cc(NC(=O)[C@H](CCCNC(=N)N)NC(=O)[C@@H](N)CCCNC(=N)N)ccc12
Kind of series: purified protein, by the assay type. To be noted: pH 8.0; 26.0 °C.

Substrate in series [2]: N=C(N)NCCC[C@H](NC(=O)[C@@H](N)CCCNC(=N)N)C(=O)Nc1ccc2ccccc2c1
Kind of series: purified protein, by the assay type. As to conditions: pH 8.0; 26.0 °C.

B1: Full length PgDPP III (1–886 aa) (Porphyromonas gingivalis W83) (protein)
chain: MTKETTQHRSGERIARFADIEVLSYRADLFGTLTPKQRMLCYHLSEAALRGRDITTIQNCRYNLWVRSLMERIYTHLSKSERTDDFALLEEYLFCIWFANGIHHHYSGAKFIARFSPGFLRAALREAGVELEPEEQVLLERVLYDTDFLPKQTEQSGEEDIIKASSVNFYAPGITRAEAESHYKNLIEALPENEKSCPPSFGLNTRLIRSTSGELKDEVCCIDGLYGPAIEAVVASLEAAIPYTENEEQAACIRLLCDYYRTGDIRLYDRFCIRWVENNRTRIDFINGFTEVYADPIGIHGSWEGLVHMQDEEAGRRTRIISEHAGWFEAHSPIDARFRKKNPHGISATVVNVLTIAGDSYPATPIGINLPNADWIRAEHGSKSVTIDNITDAYNHAARGTGLYEEFIPDEEVRRHVELHADLTDSLHTDLHECLGHGSGQLLPGVPGDALGEHASTLEETRADLFALYFLADPKMIELGLLTDPDAYKANYYKYMLNGLMTQLVRIKRGEEIEEAHMRNRALIARYVLEHAERPGAMSLVCEEGKTALVIKDYEAVRAIIAGLLTEVQRIKSEGDYTAGKALVERYAVHVDPLLHEEVLTRYAKLDIAPYKGFVNPRLRPVYNSEGRLTDATIEYTEGYAEQMLRYSAEYSFLPTDSPLLQEARRLRSHLRRAMDGVLSASMREKGLHYGINFGVTREHLLRLARTADASAPLADYLWRRDVRETKILATMIFPAEELTHEQATRLLREADNVELREQLTANLLERMPEAIRSIGRWIESKETTPDMMTGVLTLAARLFTRGIFPEDVPAEKLLTLAILHLSDEEQKAELRRASALLLKRYGRGSAERTKKVLCLLPESSQDTAPVLYELCEDIRFELDFYPKDE
As usually defined, the Km is the concentration of substrate that gives half-maximal velocity. The term kcat denotes the maximal rate divided by the concentration of active sites. By kcat/Km is commonly meant the turnover number divided by the Michaelis constant. For the protein B1, in series [1], the Km came out at 2.56 ± 0.32 µM, the kcat is 0.29 ± 0.11 s⁻¹ and the catalytic efficiency (kcat/Km) was 113000 M⁻¹ s⁻¹. In addition, in series [2], the Michaelis constant (Km) is 0.97 ± 0.16 µM, the turnover number (kcat) is 0.75 ± 0.13 s⁻¹ and the kcat/Km was determined as 773000 M⁻¹ s⁻¹.
